We go through 5 molecules from patent US12018081B1, “Photoconjugation reactions for modification of specific proteins on live cells” (The Regents of the University of Colorado, a body, priority 2019, dated 2024).

Series [1] has as its system MDA-MB-468 cells. The format is cell-based, human. The conditions noted are these: drug or prodrug only, no protein, FIG. 4. As to the method:
Finally, having established both the photocrosslinking of the […] affibody-enzyme to EGFR on living cells and retention of protein expression before and after endocytosis, the enzymatic activity of the fusion proteins was then leveraged for cell killing by prodrug conversion. […] Next, prodrug therapy experiments were run against MDA-MB-468 cells in vitro. In 96-well plates, cells were incubated with 1 μM of WT-CodA, N23-CodA, or CodA alone. As before, after 3 h the cells were irradiated with 365 nm light for 30 min followed by further incubation to a total time of 8, 24, or 48 h. When each time point was reached, the excess affibody-enzymes were removed by washing the cells three times with PBS, and 2 mM of 5-FC was added. […] After 12 h incubation with 5-FC, excess pro-drug was removed, cells were washed with PBS, and viability was measured by MTT assay. […]
Prodrug Cytotoxicity (MTT) Assays: The MDA-MB-468 cells were grown to confluence, after which the cells were washed once with DPBS (Gibco) and then trypsinized with 0.025% trypsin-EDTA (Gibco). […] The crystals were dissolved in 100 μL isopropyl alcohol (IPA), and absorbance from the wells was measured at 570 nm in a Tecan Safire II Multimode Plate reader. The readings were then normalized to the cells that were treated with neither enzyme, enzyme-affibody, nor 5-FC/5-FU to calculate the fractional viability. […]

Series [2] has as its target Extracellular domain of purified human EGFR (Sino Biological) (human) (UniProt P00533). Kind of series: microscale thermophoresis, AF647-labelled soluble EGFR, fusion protein titrated. A general note: In MST a laser heats a spot of the sample, and binding alters the fluorescence response.
For series [3], the target named is EGFR expressed on live MDA-MB-468 human breast carcinoma cells (human) (UniProt P00533). Description: cell-based or functional assay.
Series [4] can be described thus: Affibody-enzyme kinetic activity assay with cytosine (UV-Vis). In kind it is biochemical. As to conditions: 50 nM enzyme, cytosine 100-250 μM, 50 mM Tris-HCl pH 7.5. The protocol: Affibody-enzyme Kinetic Activity Assays with Cytosine: The enzymatic assay for N23-CodA, WT-CodA, and CodA were performed by varying substrate concentration and measuring the absorbance using a UV-VIS spectrophotometer (Agilent Technologies, Cary Series 100). A stock of 10 mM cytosine was prepared in 50 mM Tris-HCl at pH 7.5. Varying concentrations (250, 200, 150 and 100 μM) of cytosine solution were prepared from the stock and mixed with 50 nM of the enzyme and enzyme-affibodies. The reaction was run for 15 min with OD267 (cytosine) and OD260 (uracil) readings taken every 12 s. The concentration of cytosine was calculated for each time point and the kinetic parameters KM and kcat were calculated using the methods of initial rates and double reciprocal plots.

The conditions of series [5]: reported value for free CodA; cited from earlier work.

In the case of `Nc1nc(=O)[nH]cc1F` [5-FC, 5-fluorocytosine], the “baseline viability (cell viability fraction)” value in series [1] came out at 0.854. On the same count and under the same terms, as for `O=c1[nH]cc(F)c(=O)[nH]1` [5-FU, 5-fluorouracil], the figure is 0.467. In series [2], “BP-modified mutant affibody-enzyme (N23C ZEGFR:1907 affibody with benzophenone, fused to cytosine deaminase) (from UniProt P25524 2-427) (designed binder)” yielded a dissociation constant Kd of 44 nM. Moreover, in series [3], the cell viability of MDA-MB-468 cells by MTT assay after 5-FC prodrug is 50 to 55%. Consider “WT affibody-fused CodA (ZEGFR:1907 affibody fused to cytosine deaminase) (from UniProt P25524 2-427) (designed binder)”, for which the Kd in series [2] was 25 nM. This lies in the double-digit nanomolar range.

B1: CodA: Cytosine deaminase, bacterial enzyme of E. coli, alone without affibody (protein, UniProt P25524 2-427, looked up)
Cytosine deaminase: SNNALQTIINARLPGEEGLWQIHLQDGKISAIDAQSGVMPITENSLDAEQGLVIPPFVEPHIHLDTTQTAGQPNWNQSGTLFEGIERWAERKALLTHDDVKQRAWQTLKWQIANGIQHVRTHVDVSDATLTALKAMLEVKQEVAPWIDLQIVAFPQEGILSYPNGEALLEEALRLGADVVGAIPHFEFTREYGVESLHKTFALAQKYDRLIDVHCDEIDDEQSRFVETVAALAHHEGMGARVTASHTTAMHSYNGAYTSRLFRLLKMSGINFVANPLVNIHLQGRFDTYPKRRGITRVKEMLESGINVCFGHDDVFDPWYPLGTANMLQVLHMGLHVCQLMGYGQINDGLNLITHHSARTLNLQDYGIAAGNSANLIILPAENGFDALRRQVPVRYSVRGGKVIASTQPAQTTVYLEQPEAIDYKR
With B1, in series [4], the Km was found to be 2520 µM and the kcat worked out at 53.57 s⁻¹. Also, the “melting temperature, reported value” in series [5] is 85 °C.

A word on the Kd: it is the concentration at which binding is half-saturated. Broadly, the Km is the substrate concentration at which the rate is half of its maximum. As usually defined, the kcat is the number of substrate molecules converted per active site and unit of time at saturation.
